Substitutions are numbered along the chain they refer to.
T1: IL-2Rβ/γc complex (intermediate affinity receptor) on primary human CD8+ T cells (human, UniProt P14784 27-551; P31785 23-369)
T1 sequence (looked up) 1: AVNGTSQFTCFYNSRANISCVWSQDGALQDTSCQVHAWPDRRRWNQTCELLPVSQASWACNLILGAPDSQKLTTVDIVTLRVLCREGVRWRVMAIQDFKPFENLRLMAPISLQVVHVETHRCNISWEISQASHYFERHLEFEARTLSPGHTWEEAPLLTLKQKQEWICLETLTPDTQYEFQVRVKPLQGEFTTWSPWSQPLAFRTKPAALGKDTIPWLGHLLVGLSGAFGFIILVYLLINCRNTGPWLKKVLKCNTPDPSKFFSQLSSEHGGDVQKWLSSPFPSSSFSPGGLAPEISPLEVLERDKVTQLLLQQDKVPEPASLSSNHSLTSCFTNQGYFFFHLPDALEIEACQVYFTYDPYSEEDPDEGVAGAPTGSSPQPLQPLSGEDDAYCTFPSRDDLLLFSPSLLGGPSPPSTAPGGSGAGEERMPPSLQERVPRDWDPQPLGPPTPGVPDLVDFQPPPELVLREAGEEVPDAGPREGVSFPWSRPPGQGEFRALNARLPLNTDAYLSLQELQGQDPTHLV
T1 sequence (looked up) 2: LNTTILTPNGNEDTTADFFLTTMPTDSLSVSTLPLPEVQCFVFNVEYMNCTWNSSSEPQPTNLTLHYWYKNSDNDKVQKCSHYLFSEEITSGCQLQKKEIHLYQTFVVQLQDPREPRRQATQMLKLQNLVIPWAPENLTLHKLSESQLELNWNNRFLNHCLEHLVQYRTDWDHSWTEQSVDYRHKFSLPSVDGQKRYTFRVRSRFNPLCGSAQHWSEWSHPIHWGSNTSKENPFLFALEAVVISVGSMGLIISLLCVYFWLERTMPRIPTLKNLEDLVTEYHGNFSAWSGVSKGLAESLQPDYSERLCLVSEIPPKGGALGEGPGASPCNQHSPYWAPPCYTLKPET

T2: IL-2Rα/β/γc complex (high affinity receptor) on human activated CD8+ T cells (human, UniProt P01589 22-272; P14784 27-551; P31785 23-369)
T2 sequence (looked up) 1: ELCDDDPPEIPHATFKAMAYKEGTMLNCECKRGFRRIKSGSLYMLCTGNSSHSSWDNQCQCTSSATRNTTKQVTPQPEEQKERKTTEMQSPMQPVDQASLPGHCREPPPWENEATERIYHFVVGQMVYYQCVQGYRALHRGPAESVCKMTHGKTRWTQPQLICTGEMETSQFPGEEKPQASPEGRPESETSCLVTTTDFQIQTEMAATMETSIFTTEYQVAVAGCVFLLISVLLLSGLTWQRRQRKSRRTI
T2 sequence (looked up) 2: T1 sequence (looked up) 1
T2 sequence (looked up) 3: T1 sequence (looked up) 2

B1: W3XX115-T2U0.E44-44.uIgG4V322 (Fc fusion)
chain: APTSSSTKKTQLQLEHLLLDLQMILNGINNYKNPKLTRMLTFKFYMPKKATGLKHLQCLEEELKPLEEVLNLAQSKNFHLRPRDLISNINVIVLELKGSETTFMCEYADETATIVEFLNRWITFCQSIIESKYGPPCPPCPAPEAAGGPSVFLFPPKPKDTLMISRTPEVTCVVVDVSQEDPEVQFNWYVDGVEVHNAKTKPREEQFNSTYRVVSVLTVLHQDWLNGKEYKCKVSNKGLPSSIEKTISKAKGQPREPQVYTLPPCQEEMTKNQVSLWCLVKGFYPSDIAVEWESNGQPENNYKTTPPVLDSDGSFFLYSRLTVDKSRWQEGNVFSCSVMHEALHNHYTQKSLSLSLG
heavy: EIQLQQSGPELVKPGASVKVSCKASGYSFTDYNMYWVKQSHGESLEWIGYIDPYNGGTRYNQKFKGKATLTVDKSSSTAFMHLNSLTSEDSAVYYCARNGHWDGAWFAYWGQGTLVTVSAASTKGPSVFPLAPCSRSTSESTAALGCLVKDYFPEPVTVSWNSGALTSGVHTFPAVLQSSGLYSLSSVVTVPSSSLGTKTYTCNVDHKPSNTKVDKRVESKYGPPCPPCPAPEAAGGPSVFLFPPKPKDTLMISRTPEVTCVVVDVSQEDPEVQFNWYVDGVEVHNAKTKPREEQFNSTYRVVSVLTVLHQDWLNGKEYKCKVSNKGLPSSIEKTISKAKGQPREPQVCTLPPSQEEMTKNQVSLSCAVKGFYPSDIAVEWESNGQPENNYKTTPPVLDSDGSFFLVSRLTVDKSRWQEGNVFSCSVMHEALHNHYTQKSLSLSLG
light: DIQMNQSPSSLSASLGDTITITCHASQNINVWLSWYQQKPGNIPKLLIYKASNLHTGVPSRFSGSRSGTGFTLTISSLQPEDIATYYCHQGQSYPFTFGSGTKLEIKRTVAAPSVFIFPPSDEQLKSGTASVVCLLNNFYPREAKVQWKVDNALQSGNSQESVTEQDSKDSTYSLSSTLTLSKADYEKHKVYACEVTHQGLSSPVTKSFNRGEC
B2: W3XX115-T2U0.E44-46.uIgG4V322 (Fc fusion)
chain: B1 chain with G52E, F78G
heavy: B1 heavy
light: B1 light
B3: W3XX115-T2U0.E44-40.uIgG4V322 (Fc fusion)
chain: B1 chain with G52E, E110R
heavy: B1 heavy
light: B1 light
B4: W3XX115-T2U0.E44-47.uIgG4V322 (Fc fusion)
chain: B1 chain with G52E, P82Y
heavy: B1 heavy
light: B1 light
B5: W3XX115-T2U0.E44-45.uIgG4V322 (Fc fusion)
chain: B1 chain with G52E, K76R
heavy: B1 heavy
light: B1 light
B6: W3XX115-T2U0.E44-6.uIgG4V322 (Fc fusion)
chain: B1 chain with G52E
heavy: B1 heavy
light: B1 light
B7: W3XX115-T2U0.E44-43.uIgG4V322 (Fc fusion)
chain: B1 chain with K32D, G52E
heavy: B1 heavy
light: B1 light
B8: W3XX115-T2U3.E44-15.uIgG4V322 (Fc fusion)
chain: APTSSSTKKTQLQLEHLLLDLQMILNGINNYKNPKLTRMLTVKFYMPKKATELKHLQCLEEELKPLEEVLNLAQSKNFHLRPRDLISNINVIVLELKGSETTFMCEYADETATIVEFLNRWITFCQSIIESKYGPPCPPCPAPEAAGGPSVFLFPPKPKDTLMISRTPEVTCVVVDVSQEDPEVQFNWYVDGVEVHNAKTKPREEQFNSTYRVVSVLTVLHQDWLNGKEYKCKVSNKGLPSSIEKTISKAKGQPREPQVYTLPPCQEEMTKNQVSLWCLVKGFYPSDIAVEWESNGQPENNYKTTPPVLDSDGSFFLYSRLTVDKSRWQEGNVFSCSVMHEALHNHYTQKSLSLSLGK
heavy: QVQLVQSGAEVKKPGSSVKVSCKASGFTFTTYYISWVRQAPGQGLEYLGYINMGSGGTNYNEKFKGRVTITADKSTSTAYMELSSLRSEDTAVYYCAIIGYFDYWGQGTMVTVSSASTKGPSVFPLAPCSRSTSESTAALGCLVKDYFPEPVTVSWNSGALTSGVHTFPAVLQSSGLYSLSSVVTVPSSSLGTKTYTCNVDHKPSNTKVDKRVESKYGPPCPPCPAPEAAGGPSVFLFPPKPKDTLMISRTPEVTCVVVDVSQEDPEVQFNWYVDGVEVHNAKTKPREEQFNSTYRVVSVLTVLHQDWLNGKEYKCKVSNKGLPSSIEKTISKAKGQPREPQVCTLPPSQEEMTKNQVSLSCAVKGFYPSDIAVEWESNGQPENNYKTTPPVLDSDGSFFLVSRLTVDKSRWQEGNVFSCSVMHEALHNHYTQKSLSLSLGK
light: DVVMTQSPLSLPVTLGQPASISCRSSQSLLDSDGGTYLYWFQQRPGQSPRRLIYLVSTLGSGVPDRFSGSGSGTDFTLKISRVEAEDVGVYYCMQLTHWPYTFGQGTKLEIKRTVAAPSVFIFPPSDEQLKSGTASVVCLLNNFYPREAKVQWKVDNALQSGNSQESVTEQDSKDSTYSLSSTLTLSKADYEKHKVYACEVTHQGLSSPVTKSFNRGEC
B9: W3XX115-T2U10.Z73-56.uIgG4V322 (Fc fusion)
chain 1: B8 chain with K32D, V42I, D84K, I129L
chain 2: QVQLVESGGGVVQPGGSLRLSCAASDSIDSLVNMGWYRQAPGKQRELVALIATYITHYADFVKGRFTISRDNSKNTLYLQMNSLRAEDTAVYYCYARNIIVDYWGQGTLVTVSSGGGGSGGGGSGGGGSQVQLVESGGGVVQPGGSLRLSCAASDSIDSLVNMGWYRQAPGKQRELVALIATYITHYADFVKGRFTISRDNSKNTLYLQMNSLRAEDTAVYYCYARNIIVDYWGQGTLVTVSSESKYGPPCPPCPAPEAAGGPSVFLFPPKPKDTLMISRTPEVTCVVVDVSQEDPEVQFNWYVDGVEVHNAKTKPREEQFNSTYRVVSVLTVLHQDWLNGKEYKCKVSNKGLPSSIEKTISKAKGQPREPQVCTLPPSQEEMTKNQVSLSCAVKGFYPSDIAVEWESNGQPENNYKTTPPVLDSDGSFFLVSRLTVDKSRWQEGNVFSCSVMHEALHNHYTQKSLSLSLG
B10: W3XX115-T2U10.Z73-61.uIgG4V322 (Fc fusion)
chain 1: B8 chain with K32D, V42I, I92D, I129L
chain 2: B9 chain 2
B11: W3XX115-T2U10.Z73-62.uIgG4V322 (Fc fusion)
chain 1: B8 chain with K32D, V42I, L94D, I129L
chain 2: B9 chain 2
B12: W3XX115-T2U10.Z73-63.uIgG4V322 (Fc fusion)
chain 1: B8 chain with K32D, V42I, E95R, I129L
chain 2: B9 chain 2
B13: W3XX115-T2U10.Z73-59.uIgG4V322 (Fc fusion)
chain 1: B8 chain with K32D, V42I, V91E, I129L
chain 2: B9 chain 2
B14: W3XX115-T2U10.Z73-58.uIgG4V322 (Fc fusion)
chain 1: B8 chain with K32D, V42I, N88K, I129L
chain 2: B9 chain 2
B15: W3XX115-T2U10.Z73-60.uIgG4V322 (Fc fusion)
chain 1: B8 chain with K32D, V42I, I92R, I129L
chain 2: B9 chain 2
B16: W3XX115-T2U10.Z73-64.uIgG4V322 (Fc fusion)
chain 1: B8 chain with K32D, V42I, N119R, I129L
chain 2: B9 chain 2

Target: T1, IL-2Rβ/γc complex (intermediate …)
Assay: cell-based or functional assay

Row | Potency reduction, pSTAT5, human primary CD8+ T [fold] | pSTAT5 EC50, human primary CD8+ T [nM] | Binder
1 | 11.3 | 86.2 | B1
2 | 7.6 | 58.4 | B2
3 | 36.9 | 282 | B3
4 | 27.6 | 211 | B4
5 | 31.4 | 240 | B5
6 | 18.3 | 145 | B6
7 | 17.6 | 135 | B7

Target: T1, IL-2Rβ/γc complex (intermediate …)
Assay: cell-based or functional assay
Remark: another data set of the same source

Row | Potency reduction, pSTAT5, human primary CD8+ T [fold] | pSTAT5 EC50, human primary CD8+ T [µM] | Binder
8 | 132 | 1.87 | B8

Target: T2, IL-2Rα/β/γc complex (high affinity …)
Assay: cell-based or functional assay

Row | Potency reduction, pSTAT5, human activated CD8+ T (CD25 positive and PD-1 positive) [fold] | pSTAT5 EC50, human activated CD8+ T (CD25 positive and PD-1 positive) [nM] | Binder
9 | 139 | 3.78 | B8

Target: PD-1 (on CHO-PD1 engineered cell line; on activated CD8+ T cells) (UniProt Q15116 25-288, limits assumed)
Assay: cell-based or functional assay

Row | PD-1+/PD-1- ratio (pSTAT5 potency, activated versus primary CD8+ T) [fold] | Binder
10 | 496 | B8

Target: T1, IL-2Rβ/γc complex (intermediate …)
Assay: cell-based or functional assay
Remark: another data set of the same source

Row | Potency reduction, pSTAT5, human activated CD8+ T [fold] | Binder
11 | 2.5 | B9
12 | 14.2 | B10
13 | 6.5 | B11
14 | 2.5 | B12
15 | 18.9 | B13
16 | 26.1 | B14
17 | 10 | B15
18 | 58.7 | B16
